Drawing on patent publication US20120129892A1, “NOVEL PHARMACEUTICALLY ACCEPTABLE SALTS OF 4-(1H-IMIDAZOL-4-[…])PYRIDINE AND THEIR THERAPEUTICAL USES” (BIOPROJET, priority 2009, published 2012), this text covers Km, Vmax and Vmax/Km for one protein.

Values joined by “and” are separate entries in the source; they are usually repeats but may differ in a detail not shown here. Equal entries are not always repeated.

Common to all, as to assay: purified protein, by the assay type
Details in all cases: other: pH 7.4, 20 μM (S)-adenosyl methionine

Substrate in data set [1]: C[C@@H](N)Cc1c[nH]cn1
Substrate in data set [2]: NCCc1c[nH]cn1
Substrate in data set [3]: c1cc(Cc2cnc[nH]2)ccn1

B1: human HMT (Homo sapiens) (protein)
chain: MASSMRSLFSDHGKYVESFRRFLNHSTEHQCMQEFMDKKLPGIIGRIGDTKSEIKILSIGGGAGEIDLQILSKVQAQYPGVCINNEVVEPSAEQIAKYKELVAKTSNLENVKFAWHKETSSEYQSRMLEKKELQKWDFIHMIQMLYYVKDIPATLKFFHSLLGTNAKMLIIVVSGSSGWDKLWKKYGSRFPQDDLCQYITSDDLTQMLDNLGLKYECYDLLSTMDISDCFIDGNENGDLLWDFLTETCNFNATAPPDLRAELGKDLQEPEFSAKKEGKVLFNNTLSFIVIEA
Take B1: in data set [1], the Km is 16.26 µM, the Vmax came out at 0.56 µM/min and the Vmax/Km is 0.034 min⁻¹. Besides, in data set [2], the Km turned out to be 3.93 µM, the Vmax stood at 0.19 µM/min and the Vmax/Km was 0.048 min⁻¹. For the same protein, in data set [3], the Vmax was 0.004 µM/min and 0.003 µM/min; the Vmax/Km was 0.0011 min⁻¹ and 0.0012 min⁻¹.
